Results from patent publication US20100120695A1 (University of Pennsylvania, published 2010).
Square brackets hold non-standard residues; d marks the D form. Ends that are not written are not given here. AEEA = NCCOCCOCC(=O)O

T1: fluorescein-5-isothiourea-tagged αIIb-TM (fluorescein-5-isothiourea (FITC) attached via an ε-aminohexanoic acid linker to the N-terminus)
T1 construct: also called FITC-αIIb-TM; αIIb-TM-FITC
T1 peptide: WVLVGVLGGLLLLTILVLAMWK

T2: αV-TM-coum (coumarin label (site not stated))
T2 peptide: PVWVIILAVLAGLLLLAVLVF


Experiments:
[1] = molecular target: the molecule itself; test: analytical ultracentrifugation, equilibrium sedimentation, homodimer, 5 mM C14-betaine micelles
Experimental: (§1) Equilibrium sedimentation was used primarily to determine the association state of the peptides, but also to provide a rough estimate of the heterodimeric association constants. […] Peptides were co-dissolved in CF₃CH₂OH (Sigma-Aldrich, St. Louis, Mo.) and C14-betaine (3-(N,N-dimethylmyristyl-ammonio)propanesulfonate; Sigma-Aldrich, St. Louis, Mo.). […] The final concentration of C-14 betaine is 5 mM in the samples. Samples were prepared in a total peptide concentration of 50 μM (in case of heterodimer formation, a 1:1 mixture was prepared) and incubated overnight. Data at three measurement speeds (40, 45, and 50 KRPM for αIIb peptides and 30, 35, and 40 KRPM for the αv peptides) were analyzed by global curve-fitting of radial concentration gradients (measured using optical absorption) (FIG. 8a-8f) to the sedimentation equilibrium equation for monomer-dimer equilibria among the peptides included in the solution. […] Aqueous solution molar extinction coefficients at 280 nm were calculated using the program Sednterp. […] These coefficients were multiplied by the molar detergent concentration to provide mole ratio concentration units.
(§2) Ultracentrifugation data (FIG. 8) were first collected for the individual peptides.

[2] = molecular target: T1, fluorescein-5-isothiourea-tagged αIIb-TM; test: analytical ultracentrifugation, equilibrium sedimentation, heterodimer, 1:1 mixture in 5 mM C14-betaine micelles
Experimental: as §1, §2

αV-TM-coum = molecular target: T2, αV-TM-coum; test: as above
Experimental: as §1, §2

[3] = molecular target: integrin αVβ3 on human platelets (human, UniProt P06756 31-1048; P05106 27-788); test: cell-based or functional assay
Chain of integrin αVβ3 on human platelets (P06756 31-1048, chain 1 of 2): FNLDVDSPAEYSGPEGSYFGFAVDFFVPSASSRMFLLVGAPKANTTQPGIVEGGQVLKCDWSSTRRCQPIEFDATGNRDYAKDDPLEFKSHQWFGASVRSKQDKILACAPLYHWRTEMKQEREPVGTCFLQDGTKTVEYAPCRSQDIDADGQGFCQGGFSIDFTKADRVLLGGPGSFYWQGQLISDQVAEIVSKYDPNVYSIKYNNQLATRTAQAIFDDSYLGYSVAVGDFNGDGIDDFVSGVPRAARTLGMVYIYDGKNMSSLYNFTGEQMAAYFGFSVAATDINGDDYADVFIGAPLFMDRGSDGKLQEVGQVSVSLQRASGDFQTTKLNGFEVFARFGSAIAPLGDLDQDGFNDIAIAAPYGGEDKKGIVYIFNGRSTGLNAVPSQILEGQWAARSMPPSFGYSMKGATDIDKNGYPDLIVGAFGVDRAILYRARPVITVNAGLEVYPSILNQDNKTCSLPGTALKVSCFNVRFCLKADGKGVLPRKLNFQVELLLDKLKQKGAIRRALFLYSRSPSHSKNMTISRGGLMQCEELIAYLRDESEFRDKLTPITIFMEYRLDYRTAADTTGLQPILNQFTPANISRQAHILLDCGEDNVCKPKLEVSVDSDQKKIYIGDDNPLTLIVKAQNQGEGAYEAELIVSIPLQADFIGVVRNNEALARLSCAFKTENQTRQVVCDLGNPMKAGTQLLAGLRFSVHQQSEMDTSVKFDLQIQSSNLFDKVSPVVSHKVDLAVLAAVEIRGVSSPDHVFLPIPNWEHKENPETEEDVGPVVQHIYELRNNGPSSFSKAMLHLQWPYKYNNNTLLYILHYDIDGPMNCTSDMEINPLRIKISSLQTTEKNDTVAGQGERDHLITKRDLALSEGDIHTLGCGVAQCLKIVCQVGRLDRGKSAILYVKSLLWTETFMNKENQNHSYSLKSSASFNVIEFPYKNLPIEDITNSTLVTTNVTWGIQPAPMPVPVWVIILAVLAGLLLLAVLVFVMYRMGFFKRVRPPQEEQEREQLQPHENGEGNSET
Chain of integrin αVβ3 on human platelets (P05106 27-788, chain 2 of 2): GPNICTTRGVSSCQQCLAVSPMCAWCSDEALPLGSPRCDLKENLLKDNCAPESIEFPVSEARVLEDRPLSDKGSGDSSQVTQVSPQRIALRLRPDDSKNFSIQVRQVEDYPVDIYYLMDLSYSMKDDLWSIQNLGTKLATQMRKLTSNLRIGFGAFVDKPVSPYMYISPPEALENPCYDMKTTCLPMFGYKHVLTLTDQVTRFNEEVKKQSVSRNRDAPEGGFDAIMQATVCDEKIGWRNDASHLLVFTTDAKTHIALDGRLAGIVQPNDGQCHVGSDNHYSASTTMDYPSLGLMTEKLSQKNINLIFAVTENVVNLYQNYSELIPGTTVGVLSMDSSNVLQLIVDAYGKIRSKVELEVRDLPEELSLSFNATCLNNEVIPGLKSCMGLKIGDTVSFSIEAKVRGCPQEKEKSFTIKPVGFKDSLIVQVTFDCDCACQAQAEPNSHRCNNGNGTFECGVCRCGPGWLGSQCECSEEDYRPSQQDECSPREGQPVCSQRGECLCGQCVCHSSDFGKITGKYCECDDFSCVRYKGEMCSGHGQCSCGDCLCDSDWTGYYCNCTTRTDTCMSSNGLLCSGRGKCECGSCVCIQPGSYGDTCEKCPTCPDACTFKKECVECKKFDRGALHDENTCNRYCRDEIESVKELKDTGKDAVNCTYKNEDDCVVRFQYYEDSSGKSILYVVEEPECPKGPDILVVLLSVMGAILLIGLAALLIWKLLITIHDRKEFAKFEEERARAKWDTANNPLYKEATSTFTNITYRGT

| Binder | Dimerization pKdiss [1] | further results |
| --- | --- | --- |
| WVLVGVLGGLLLLTILVLAMWK [αIIb-TM polypeptide] | 1.8 pKdiss (mole ratio units) |  |
| PVWVIILAVLAGLLLLAVLVF [αV-TM] | 0.7 pKdiss (mole ratio units) |  |
| KKAYVMLLPFFIGLLLGLIFGGAFWGPARHLKK (designed binder, also: FITC-labeled, site not given here) [Anti-αIIb (FITC-labeled)] | 2.3 pKdiss (mole ratio units) |  |
| KKAYVMLLPFFIGLLLGLIFGGAFWGPARHLKK (designed binder, also called anti-am) [anti-αIIb polypeptide] |  | Dimerization pKdiss [2]: 2.6 pKdiss (mole ratio units) |
| [AEEA]AYVFILLSFILGTLLGFLVMFWA (designed binder) [anti-αV polypeptide] |  | Dimerization pKdiss (αV-TM-coum): > 2 pKdiss (mole ratio units); fold decrease in potency in inducing platelet adhesion to immobilized osteopontin [3]: ~10 fold |
| AYVFILLSFILGTLLGFLVMFWA (designed binder, also: coumarin-labeled, site not given here) [Anti-αV(coumarin-labeled)] | 1.4 pKdiss (mole ratio units) |  |
